From US20240270845A1 (ZELARION MALTA, published 2024)

T1: Recombinant truncated human CD2 (human, UniProt P06729 25-209, limits assumed)
T1 construct: Bought; also called LFA2
T1 sequence (looked up): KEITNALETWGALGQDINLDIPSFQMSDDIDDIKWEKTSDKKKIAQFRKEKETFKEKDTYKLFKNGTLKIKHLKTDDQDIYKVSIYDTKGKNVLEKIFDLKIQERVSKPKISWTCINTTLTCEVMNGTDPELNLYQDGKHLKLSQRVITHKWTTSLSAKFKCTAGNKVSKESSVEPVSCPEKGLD


Molecular target: T1, Recombinant truncated human CD2
Assay: SPR (Biacore T200), IgG amine-coupled to CM5 chip, CD2 injected up to 5 nM, two-state model, 25 °C
Protocol: All interaction experiments were performed at 25° C. Recombinant truncated human CD2 (Sino Biological, Beijing, China) was diluted in two-fold dilution series with the highest concentration being 5 nM and injected for 180 seconds over immobilized IgG. After 15 minutes of dissociation, the sensor chip was regenerated by 30 seconds injection of 10 mM glycine pH 1.7. Sensorgrams from reference surfaces and blank injections were subtracted from the raw data prior to data analysis. A two-state (induced fit) interaction model was fitted to the data using T200 evaluation software v3.0 (Cytiva Life Sciences/Biacore, Uppsala, Sweden) to determine kinetic rate constants and affinities.

Row | Binder | Kd [nM]
1 | Siplizumab (humanized anti-CD2 IgG1κ) (antibody, V domains shown, also called MEDI-507; anti-CD2 Ab1) VH: QVQLVQSGAEVQRPGASVKVSCKASGYIFTEYYMYWVRQAPGQGLELVGRIDPEDGSIDYVEKFKKKVTLTADTSSSTAYMELSSLTSDDTAVYYCARGKFNYRFAYWGQGTLVTVSS VL: DVVMTQSPPSLLVTLGQPASISCRSSQSLLHSSGNTYLNWLLQRPGQSPQPLIYLVSKLESGVPDRFSGSGSGTDFTLKISGVEAEDVGVYYCMQFTHYPYTFGQGTKLEIK | 1.2
2 | CD2-binding molecule 3 (FcS anti-CD2 IgG2) (antibody, V domains shown, Standard IgG2 framework with V234A, G237A, P238S, H268A, V309L, A330S, P331S; made in CHO-K1 cells) VH: QVQLVQSGAEVQRPGASVKVSCKASGYIFTEYYMYWVRQAPGQGLELVGRIDPEDGSIDYVEKFKKKVTLTADTSSSTAYMELSSLTSDDTAVYYCARGKFNYRFAYWGQGTLVTVSS VL: DVVMTQSPPSLLVTLGQPASISCRSSQSLLHSSGNTYLNWLLQRPGQSPQPLIYLVSKLESGVPDRFSGSGSGTDFTLKISGVEAEDVGVYYCMQFTHYPYTFGQGTKLEIK | 0.9
3 | CD2-binding molecule 4 (FcS anti-CD2 IgG4) (antibody, V domains shown, Standard IgG4 framework with S228P, L235E, P329G; made in CHO-K1 cells) VH: QVQLVQSGAEVQRPGASVKVSCKASGYIFTEYYMYWVRQAPGQGLELVGRIDPEDGSIDYVEKFKKKVTLTADTSSSTAYMELSSLTSDDTAVYYCARGKFNYRFAYWGQGTLVTVSS VL: DVVMTQSPPSLLVTLGQPASISCRSSQSLLHSSGNTYLNWLLQRPGQSPQPLIYLVSKLESGVPDRFSGSGSGTDFTLKISGVEAEDVGVYYCMQFTHYPYTFGQGTKLEIK | 1.4

Further binders by falling Kd, results first:

Row | Kd [nM] | Binder
4 | 1.5 | CD2-binding molecule 2 (Fc-silent (FcS) anti-CD2 IgG1) (antibody, V domains shown, IgG1 with LALA-PG mutations at equivalent sites in siplizumab; made in CHO-K1 cells; also called Fc-silent Siplizumab) VH: QVQLVQSGAEVQRPGASVKVSCKASGYIFTEYYMYWVRQAPGQGLELVGRIDPEDGSIDYVEKFKKKVTLTADTSSSTAYMELSSLTSDDTAVYYCARGKFNYRFAYWGQGTLVTVSS VL: DVVMTQSPPSLLVTLGQPASISCRSSQSLLHSSGNTYLNWLLQRPGQSPQPLIYLVSKLESGVPDRFSGSGSGTDFTLKISGVEAEDVGVYYCMQFTHYPYTFGQGTKLEIK
5 | 1.2 | CD2-binding molecule 1 (a deglycosylated CD2-binding molecule) (antibody, V domains shown, Fc N-glycan removed with EndoS2 (GlycINATOR), produced with GlycINATOR (EndoS2)) VH: QVQLVQSGAEVQRPGASVKVSCKASGYIFTEYYMYWVRQAPGQGLELVGRIDPEDGSIDYVEKFKKKVTLTADTSSSTAYMELSSLTSDDTAVYYCARGKFNYRFAYWGQGTLVTVSS VL: DVVMTQSPPSLLVTLGQPASISCRSSQSLLHSSGNTYLNWLLQRPGQSPQPLIYLVSKLESGVPDRFSGSGSGTDFTLKISGVEAEDVGVYYCMQFTHYPYTFGQGTKLEIK
